In patent US10253078 (ZEALAND PHARMA A S, dated 2019):
Like-named read-outs stand apart in the source and are kept apart here. Starred links: 1 amine or outer side, 2 acyl side, 3 side chain; linkers in the order of their positions; H or OH if unused. Non-standard residues stand in square brackets, D forms with d. Groups on a side chain read outwards from the residue. *: point of attachment. C20 diacid = O=C(O)CCCCCCCCCCCCCCCCCCC(=O)*; γGlu = O=C(O)[C@H](CCC(=O)[*:2])N[*:1]; Aib = CC(C)(N)C(=O)O

Legend:
Assay in all cases: cell-based or functional assay
[1] = target: human GLP-1 receptor (human) (UniProt P43220)
Chain of human GLP-1 receptor (human) (P43220 24-463): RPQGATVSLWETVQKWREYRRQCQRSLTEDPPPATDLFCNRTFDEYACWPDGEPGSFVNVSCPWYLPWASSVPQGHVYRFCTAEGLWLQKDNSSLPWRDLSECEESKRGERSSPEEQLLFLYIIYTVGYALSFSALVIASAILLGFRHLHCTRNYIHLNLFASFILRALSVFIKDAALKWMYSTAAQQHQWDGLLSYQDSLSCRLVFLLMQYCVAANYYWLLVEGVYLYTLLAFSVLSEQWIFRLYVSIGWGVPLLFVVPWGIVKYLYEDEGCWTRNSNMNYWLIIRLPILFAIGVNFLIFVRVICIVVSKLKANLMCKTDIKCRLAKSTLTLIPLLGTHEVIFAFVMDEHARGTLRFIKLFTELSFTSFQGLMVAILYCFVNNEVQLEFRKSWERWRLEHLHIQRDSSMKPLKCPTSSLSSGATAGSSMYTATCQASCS

[2] = target: T1, human GIP receptor (human, UniProt P48546 22-466)
T1 sequence (looked up): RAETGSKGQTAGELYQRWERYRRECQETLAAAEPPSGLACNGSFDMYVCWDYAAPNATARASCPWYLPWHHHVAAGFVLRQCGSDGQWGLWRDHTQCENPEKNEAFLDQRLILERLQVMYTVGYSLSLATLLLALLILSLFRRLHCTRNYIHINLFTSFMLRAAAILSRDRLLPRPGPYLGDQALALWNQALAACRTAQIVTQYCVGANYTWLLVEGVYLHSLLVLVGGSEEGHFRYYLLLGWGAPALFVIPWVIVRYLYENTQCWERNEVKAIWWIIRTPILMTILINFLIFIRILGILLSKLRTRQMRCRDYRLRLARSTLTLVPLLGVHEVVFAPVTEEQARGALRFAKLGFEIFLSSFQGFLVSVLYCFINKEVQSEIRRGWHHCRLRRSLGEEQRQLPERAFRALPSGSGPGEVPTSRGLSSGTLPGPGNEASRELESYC

[3] = target: human GLP-1 receptor (human, UniProt P43220 24-463)
[4] = target: T1, human GIP receptor; remark: listed apart in the source
[5] = target: T1, human GIP receptor; remark: listed apart in the source

Chain of Exendin-4 (P26349 48-86 limits assumed): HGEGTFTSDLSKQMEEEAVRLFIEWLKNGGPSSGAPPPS

Molecule	EC50 hGLP1 R (cAMP, HEK293 cells expressing the GLP-1R) [1] [nM]	EC50, hGIP-R level of cAMP (HEK293 cells expressing human GIP R) [2] [nM]	EC50 hGLP1 R (cAMP, HEK293 cells expressing the GLP-1R) [3] [nM]	EC50, hGIP-R level of cAMP (HEK293 cells expressing human GIP R) [4] [nM]	EC50 hGIP R (cAMP, HEK293 cells expressing the GIP R) [5] [nM]
Exendin-4 (from UniProt P26349 48-86) (peptide)	0.004				
human GIP (from UniProt P09681 52-93) (ligand)		0.003	> 100		
H-Y[Aib]EGTFISDYSIELDKK([Peg3-Peg3-γGlu-C20 diacid])AAQAFIEWLLAQGPSSGAPPPS-NH2 [Compound 40]			> 10	0.01	0.007
YAEGTFISDYSIELDKKAAQAFIEWLLAQGPSSGAPPPS (Aib at 2; Lys 17 side chain acylated: K((19-Carboxy-nonadecanoyl)-[(Piperazine-1-yl)-acetyl]-Peg3-Peg3); C-terminal amide (-NH2)) [Compound 41]			> 10	0.014	0.01
H-Y[Aib]EGTFISDYSIELEKK([Peg3-Peg3-γGlu-C20 diacid])AQRAFVEWLLAQGPSSGAPPPS-NH2 [Compound 12]			> 3	0.009	0.009
H-Y[Aib]EGTFISDYSIELEKIAQRAFVEWLLAQGPSSGAPPPSK([Peg3-Peg3-γGlu-C20 diacid])-NH2 [Compound 13]			> 10	0.014	0.008
H-Y[Aib]EGTFISDYSIELEKIAQRAFVEWLLAQK([Peg3-Peg3-γGlu-C20 diacid])-NH2 [Compound 14]			> 10	0.024	0.014
H-Y[Aib]EGTFISDYSIELDKK([Peg3-Peg3-γGlu-C20 diacid])AAQDFVNWLLAGPSSGAPPPS-NH2 [Compound 15]			> 100	0.012	0.024
H-Y[Aib]EGTFISDYSIELDKIAAQDFVNWLLAGPSSGAPPPSK([Peg3-Peg3-γGlu-C20 diacid])-NH2 [Compound 16]			> 10	0.016	0.012
H-Y[Aib]EGTFISDYSIELDKK([Peg3-Peg3-γGlu-C20 diacid])AQRAFVEWLLAQGPSSGAPPPS-NH2 [Compound 17]			> 3	0.007	0.016
H-Y[Aib]EGTFISDYSIELDKK([Peg3-Peg3-γGlu-C20 diacid])AQRAFIEWLLAQGPSSGAPPPS-NH2 [Compound 18]			> 3	0.006	0.007
H-Y[Aib]EGTFISDYSIELDKK([Peg3-Peg3-γGlu-C20 diacid])HQQDFVNYLLAQGPSSGAPPPS-NH2 [Compound 8]			> 10	0.009	0.019
